Bridge positions count the residues as written; N and C are the ends. Peptide text beside a SMILES is read from it. * marks the point of attachment. DOTA = O=C(O)CN1CCN(CC(=O)O)CCN(CC(=O)*)CCN(CC(=O)O)CC1; AEEA = NCCOCCOCC(=O)O
Assays:
VAP-1 [1] = molecular target: T1, VAP-1 (Mus musculus, UniProt O70423); test: 4-week VAP-1 inhibitor treatment: plaque macrophages and intima-to-media ratio; format: in vivo, mouse (LDLR−/−ApoB100/100)
T1 construct: VAP-1 was expressed on endothelial cells lining inflamed atherosclerotic lesions; from tissue; host or cells: living mice (LDLR-/-ApoB100/100, Jackson strain #003000; C57BL/6N controls); aorta, atherosclerotic plaque endothelium, adipocytes
T1 sequence (O70423 1-765): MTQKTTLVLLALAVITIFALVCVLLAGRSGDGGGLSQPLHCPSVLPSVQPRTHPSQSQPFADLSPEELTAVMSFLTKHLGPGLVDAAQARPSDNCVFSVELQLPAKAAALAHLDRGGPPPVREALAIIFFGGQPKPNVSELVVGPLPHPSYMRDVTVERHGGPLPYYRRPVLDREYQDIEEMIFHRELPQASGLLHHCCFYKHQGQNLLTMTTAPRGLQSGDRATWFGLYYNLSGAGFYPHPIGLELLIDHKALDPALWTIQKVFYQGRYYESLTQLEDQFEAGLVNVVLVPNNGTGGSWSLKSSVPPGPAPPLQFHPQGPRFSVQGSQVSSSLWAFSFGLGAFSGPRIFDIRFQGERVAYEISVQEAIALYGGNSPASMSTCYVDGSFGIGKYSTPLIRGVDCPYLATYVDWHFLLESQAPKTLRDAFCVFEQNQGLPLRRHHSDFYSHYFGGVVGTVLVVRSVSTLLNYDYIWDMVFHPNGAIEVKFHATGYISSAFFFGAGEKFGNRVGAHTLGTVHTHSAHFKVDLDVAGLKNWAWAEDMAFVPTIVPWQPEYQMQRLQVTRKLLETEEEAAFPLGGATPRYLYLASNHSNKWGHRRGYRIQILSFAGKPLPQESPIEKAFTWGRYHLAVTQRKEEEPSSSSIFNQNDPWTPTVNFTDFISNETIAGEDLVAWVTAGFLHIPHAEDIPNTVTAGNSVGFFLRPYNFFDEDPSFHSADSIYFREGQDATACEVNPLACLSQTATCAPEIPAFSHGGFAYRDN
Method: (§1) The second phase examined the role of VAP-1 in atherosclerotic plaques. Twenty-five LDLR^−/−ApoB^100/100 mice were treated with a VAP-1 inhibitor (LJP1586, Z-3-fluoro-2-(4-methoxybenzyl)allylamine hydrochloride; a kind gift from M. Linnik, La Jolla Pharmaceuticals, San Diego, CA, USA), or with saline. At the age of 2 months, mice were shifted to a high-fat diet for 2 months prior to the start of 4-week treatment, during which they were on normal chow. All mice were housed in an animal facility under standard conditions (12 h light/dark cycle) and allowed access to food and water ad libitum.
(§2) During the 4 week treatment period, LDLR^−/−ApoB^100/100 mice received thrice-weekly intraperitoneal (i.p.) injections of a small molecular VAP-1 inhibitor, LJP1586 (Z-3-fluoro-2-(4-methoxybenzyl)allylamine hydrochloride; 0.5 mg/mL diluted in PBS; a kind gift from M. Linnik, La Jolla Pharmaceuticals, San Diego, CA, USA) at a dose of 5 mg/kg. Mice injected with the physiological saline alone (200 μL) served as negative controls. After treatment, all mice were sacrificed and the hearts were collected, formalin-fixed, and paraffin-embedded. Tissues were then cut transversely into 5 μm sections at the level of the coronary ostia. The areas of intima and media were outlined in sections stained with Movat’s pentachrome, and the intima-to-media ratio for each mouse was determined with ImageJ as described previously. Adjacent sections were stained with an anti-mouse Mac-3 antibody to detect activated macrophages in the intima as described above. Sections of aortic ostium were used to determine the area of plaque occupied by macrophages in each mouse because the ostium is easily located due to the presence of valves; it is therefore the most reliable place to compare plaque deposition in individual mice.

[2] = tested on: broad panel of receptors and enzymes, including monoamine oxidases A and B; settings: cited from earlier work
Description: (§3) The adhesive function of VAP-1 can be inhibited by […]. Inhibiting VAP-1 reduces the migration of lymphocytes, granulocytes, and monocytes into inflamed tissues; it also reduces pathological angiogenesis in many animal models by abrogating monocyte/macrophage infiltration.

VAP-1 [3] = settings: mouse VAP-1; cited from earlier work
Description: as §3

[4] = Body weight and plasma lipids after 4-week VAP-1 inhibitor treatment; format: in vivo, mouse (LDLR−/−ApoB100/100); settings: mean ± SD
Method: as §1
as §2, with “Sections of aortic ostium were used to determine the area of plaque occupied by macrophages in each mouse because the ostium is easily located due to the presence of valves; it is therefore the most reliable place to compare plaque deposition in individual mice.” left out
Total cholesterol (CHOD-PAP 1489232 kit; Roche Diagnostics GmbH, Mannheim, Germany), choline-containing phospholipids (990–54009; Wako Chemicals GmbH, Neuss, Germany and/or Diagnostic Systems, Holzheim, Germany), and triglycerides (GPO-PAP 1488872 kit; Roche Diagnostics GmbH) were measured using fully enzymatic methods.

VAP-1 [5] = molecular target: T1, VAP-1; design: species or system mouse (LDLR−/−ApoB100/100; C57BL/6N); settings: in vivo
Method: Mice (n = 5) then received an injection of [^68Ga]DOTA-Siglec-9 (22 ± 9 MBq) and were then subjected to subsequent ex vivo biodistribution and autoradiography analyses.
The distribution of [^68Ga]DOTA-Siglec-9 in the aorta was examined in more detail using autoradiography, as described previously. Briefly, after gamma counting, excised aortas were frozen in isopentane, and sequential longitudinal cryosections (20 and 8 μm) were cut using a cryomicrotome at −15 °C. Sections were then thaw-mounted onto microscope slides. […]
The 20 μm sections were stained with hematoxylin and eosin and scanned with a Pannoramic 250 Flash slide scanner (3DHISTECH Ltd.), and morphology was examined using Pannoramic Viewer 1.15 software (3DHISTECH Ltd.). After carefully superimposing the autoradiographs and hematoxylin-eosin staining images, the concentration of ^68Ga-radioactivity was measured in the following ROI: 1) plaques (excluding media); 2) normal vessel wall (no lesion formation); and 3) adventitia (mainly adipose tissue around the aorta). The results were expressed as count densities (photostimulated luminescence per square millimeter; PSL/mm^2) using Tina 2.1 software (Raytest Isotopemessgeräte GmbH, Straubenhardt, Germany). […] In total, […] (417 in plaques, 478 in normal vessel walls, and 347 in adventitia) were analyzed in 27 atherosclerotic and 20 control mice. […]

VAP-1 [6] = molecular target: T1, VAP-1; test: in vivo; design: species or system mouse (LDLR−/−ApoB100/100; C57BL/6N); settings: mouse
Method: (§4) Mice (LDLR^−/−ApoB^100/100, n = 22; C57BL/6N, n = 20) under isoflurane anesthesia were i.v. injected with [^68Ga]DOTA-Siglec-9 (19 ± 5 MBq). […] The thoracic aorta was excised and rinsed in saline to remove blood. Aorta, blood, heart, and femoral muscle were weighed, and radioactivity was measured in a gamma counter (Triathler 3″, Hidex, Turku, Finland). Hearts were preserved in formalin for further characterization of plaques in the aortic root. The ex vivo biodistribution results were expressed as a percentage of the injected radioactivity dose per gram of tissue (%IA/g). The radioactivity remaining in the tail was compensated for. […] Mice (n = 5) then received an injection of [^68Ga]DOTA-Siglec-9 (22 ± 9 MBq) and were then subjected to subsequent ex vivo biodistribution and autoradiography analyses.

VAP-1 [7] = tested on: T2, VAP-1; test: in vivo; design: species or system mouse (LDLR−/−ApoB100/100; C57BL/6N); settings: total radioactivity
T2 construct: VAP-1 was expressed on endothelial cells lining inflamed atherosclerotic lesions; from tissue; host or cells: living mice (LDLR-/-ApoB100/100, Jackson strain #003000; C57BL/6N controls); aorta, atherosclerotic plaque endothelium, adipocytes
Method: as §4

| reduction of Mac-3-positive macrophages in atherosclerotic plaques compared with the saline group (VAP-1 [1]; LJP1586 5 mg/kg i.p. thrice weekly for 4 weeks, P < 0.0001) [%] | intima-media ratio (plaque size) (VAP-1 [1]; LJP1586 5 mg/kg i.p. thrice weekly for 4 weeks, n = 15, aortic ostium, mean ± SD (saline 1.5 ± 0.6; P = 0.15)) | areal percentage of the aortic plaque occupied by Mac-3-positive macrophages (VAP-1 [1]; LJP1586 5 mg/kg i.p. thrice weekly for 4 weeks, n = 15, aortic ostium, mean ± SD (saline 15% ± 5.1%)) | effect on plaque size, as determined by the intima-media ratio (VAP-1 [1]; LJP1586 for 4 weeks vs saline) | SMILES | selectivity for VAP-1 [2] | IC50 (VAP-1 [3]) [nM] | Body weight ([4]; LJP1586-treated LDLR−/−ApoB100/100 mice (n = 15), P = 0.065 vs saline) [g] | Weight, female ([4]; LJP1586 group, female LDLR−/−ApoB100/100 mice (n = 8)) [g] | Weight, male ([4]; LJP1586 group, male LDLR−/−ApoB100/100 mice (n = 7)) [g] | Plaque-to-adventitia ratio (autoradiography) (VAP-1 [5]) [P < 0.0001] | Plaque-to-wall ratio (autoradiography) (VAP-1 [5]) [P < 0.0001] | aorta-to-blood ratio on prolonging the accumulation time-point to 90 min (VAP-1 [6]) | aorta-to-muscle ratio (VAP-1 [6]) | aorta-to-muscle ratio with competition (VAP-1 [6]) | tissue uptake at 25 min (VAP-1 [7]; C57BL/6N, mouse, iv, uptake by the whole aorta) [%ID/g] | tissue uptake at 25 min (VAP-1 [7]; LDLR−/−ApoB100/100, mouse, iv, radioactivity concentration in the blood) [%ID/g] | tissue uptake at 25 min (VAP-1 [7]; LDLR−/−ApoB100/100, mouse, iv, uptake by the whole aorta) [%ID/g] | tissue uptake at 25 min (VAP-1 [7]; LDLR−/−ApoB100/100, mouse, radioactivity concentration in the blood with competition) [%ID/g] | tissue uptake at 25 min (VAP-1 [7]; LDLR−/−ApoB100/100, mouse, uptake by the whole aorta with competition) [%ID/g] |
| --- | --- | --- | --- | --- | --- | --- | --- | --- | --- | --- | --- | --- | --- | --- | --- | --- | --- | --- | --- |
| 46 | 1.9 ± 0.8 | 8.2% ± 3.5% | no effect | COc1ccc(C/C(=C/F)CN)cc1.Cl [LJP1586, Z-3-fluoro-2-(4-methoxybenzyl)allylamine hydrochloride] | has been confirmed | 4 | 28 ± 4.5 | 25 ± 1.9 | 33 ± 1.7 | – | – | – | – | – | – | – | – | – | – |
| – | – | – | – | CC(C)C[C@@H]1NC(=O)CNC(=O)[C@H](CCCNC(=N)N)NC(=O)[C@H](Cc2c[nH]c3ccccc23)NC(=O)[C@H](CO)NC(=O)[C@H](CC(C)C)NC(=O)[C@H](CO)NC(=O)[C@H](CC(C)C)NC(=O)[C@H](CCCNC(=N)N)NC(=O)[C@H](C)NC(=O)[C@@H](NC(=O)COCCOCCNC(=O)CN2CCN(CC(=O)O)CCN(CC(=O)O)CCN(CC(=O)O)CC2)CSSC[C@@H](C(=O)N2CCC[C@H]2C(=O)N[C@@H](CO)C(=O)N[C@@H](CCCCN)C(=O)O)NC(=O)[C@H](CC(C)C)NC(=O)[C@H]([C@@H](C)O)NC1=O [[^68Ga]DOTA-Siglec-9, metal not drawn] ({DOTA-AEEA}-CARLSLSWRGLTLCPSK-OH; disulfide 1-14) | – | – | – | – | – | 1.8 ± 0.35 | 2.1 ± 0.43 | did not improve | 1.7 ± 0.59 | 1.1 ± 0.38 | 0.46 ± 0.1 | 3 ± 1.3 | 0.83 ± 0.33 | 2.6 ± 0.9 | 0.48 ± 0.066 |

Reference: PMC5059718, “Leukocyte trafficking-associated vascular adhesion protein 1 is expressed and functionally active in atherosclerotic plaques” (Scientific Reports, 2016)
